We go through one molecule from article PMC11791206 (Nature Communications, 2025).

For the test, the target named is full-length (MLD-containing) EBOV glycoprotein GP1,2, wild type (Ebola virus (EBOV), UniProt Q05320). Nature of the test: immunostaining of cells or tissue. Conditions: one partner purified.
Sequence of full-length (MLD-containing) EBOV glycoprotein GP1,2, wild type (Q05320 33-676): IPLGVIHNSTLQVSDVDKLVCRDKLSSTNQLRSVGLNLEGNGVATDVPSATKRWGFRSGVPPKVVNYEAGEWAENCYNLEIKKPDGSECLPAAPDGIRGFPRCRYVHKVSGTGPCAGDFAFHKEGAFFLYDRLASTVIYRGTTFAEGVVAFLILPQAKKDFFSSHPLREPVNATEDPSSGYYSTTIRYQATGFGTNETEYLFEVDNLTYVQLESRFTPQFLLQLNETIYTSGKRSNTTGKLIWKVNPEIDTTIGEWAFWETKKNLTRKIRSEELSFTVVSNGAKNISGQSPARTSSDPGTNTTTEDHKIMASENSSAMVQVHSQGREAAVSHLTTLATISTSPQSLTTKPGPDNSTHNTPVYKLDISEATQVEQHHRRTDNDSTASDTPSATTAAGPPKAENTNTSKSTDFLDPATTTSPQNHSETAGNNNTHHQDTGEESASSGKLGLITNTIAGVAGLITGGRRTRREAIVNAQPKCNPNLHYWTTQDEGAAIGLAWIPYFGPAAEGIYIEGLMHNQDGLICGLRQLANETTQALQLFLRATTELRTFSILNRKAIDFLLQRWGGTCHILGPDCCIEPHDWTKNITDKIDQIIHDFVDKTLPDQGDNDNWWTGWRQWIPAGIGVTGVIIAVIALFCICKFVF

B1: mAb 9.6.3A6 (3A6 IgG) (antibody, V domains shown)
VH: EVQLLESGGGLVKPGGSLRLSCAASGFTFNEYMMNWVRQPPGKGLEWVSSISGTSTYINYADSVKGRFTISRDNAKNSLYLQMNSLRSDDTAMYYCARGSTGGYWGQGTLITVSS
VL: DIVMTQTPLSSAVTLGQPASISCRSSQRLVHSDGNTYLSWLHQRPGQPPRLLIYKVSLRFSGVPDRFSGSGAGTDFTLKISRVEAEDVGIYYCMQATQFPLTFGGGTKVEIK
notes: copies: 2 + 2
In the case of B1, the binding result is “binds”.
